This passage reports fold reduction of the interaction against wild type H3 nucleosomes and fold weaker interaction than the H3K27me3 peptide results from PMC4652225.

For test [1], the target named is Flag-tagged K27-mutated (K27R) H3 (in mononucleosomes) (human) (UniProt P68431). As to the kind of experiment: co-IP; MCF7 cells transfected with Flag-H3 WT or K27R; mononucleosomes by MNase digestion, immunoprecipitated with Flag antibody; Western blot with H1.2 antibody (Fig. 2A). (In western blotting, separated proteins are transferred to a membrane and probed.)

Test [2] deals with GST-H1.2 wild type (human) (UniProt P16403). As to the kind of experiment: pull-down; GST-H1.2 attached to glutathione beads, FITC-conjugated H3 peptides in solution; increasing KCl from 100 to 400 mM (Fig. S1A).

The substance “linker histone H1.2 (endogenous) (from UniProt P16403 1-213) (natural protein)” showed a fold reduction of the interaction against wild type H3 nucleosomes in test [1] of 2.5 fold.
As for FITC-conjugated H3K27me1 peptide, in test [2], the fold weaker interaction than the H3K27me3 peptide at elevated KCl is 3 fold.
As to FITC-conjugated H3K27me2 peptide, the fold weaker interaction than the H3K27me3 peptide at elevated KCl in test [2] is 3 fold.
In the case of FITC-conjugated H3K27me0 peptide, in test [2], the fold weaker interaction than the H3K27me3 peptide at elevated KCl is 3 fold.
